# Columns and labels:
# CHO cells = test: [3H]thymidine incorporation (growth) in CHO cells; format: cell-based; settings: TGFβ-1 at 5 ng/ml
# Experimental: (§1) The ability of decorin to modulate the activity of TGFβ-1 was examined in [^3 H]thymidine incorporation assays. In one assay, an unamplified CHO cell line transfected only with pSV2dhfr (control cell line A in reference 1, called CHO cells here) was used. The cells were maintained in nucleoside-free alpha-modified minimal essential medium (e-MEM, GIBCO, Long Island, N.Y.) supplemented with 9% dialyzed fetal calf serum (dFCS) and [^3 H]thymidine incorporation was assayed as described (Cheifetz et al., Cell 48:409-415 (1987)). TGFβ-1 was added to the CHO cell cultures at 5 ng/ml. At this concentration, it induced a 50% increase of [^3 H]thymidine incorporation in these cells. Decorin or BSA was added to the medium at different concentrations. The data represent percent neutralization of the TGFβ-1-induced growth stimulation, i.e., [^3 H]thymidine incorporation, in the absence of either TGFβ-1 or decorin=0%, incorporation in the presence of TGFβ-1 but not decorin=100%. […] Decorin (.circle-solid.) BSA (.largecircle.).
# This was shown by gel filtration of the DEAE-isolated decorin under dissociating conditions. […] The fractions were analyzed by SDS-PAGE, decorin ELISA and cell growth assays, all described above. […] Shown are the ability of the gel filtration fractions to affect [^3 H]-thymidine incorporation by the CHO cells and the concentration of decorin as determined by enzyme immunoassay. […]
# Mv1Lu cells = test: [3H]thymidine incorporation (growth) in Mv1Lu mink lung epithelial cells; format: cell-based; settings: TGFβ-1 at 0.5 ng/ml
# Experimental: Assay was performed as in FIG. 4A, except that TGFβ-1 was added at 0.5 ng/ml. This concentration of TGFβ induces 50% reduction of [^3 H]-thymidine incorporation in the Mv1Lu cells. The data represent neutralization of TGFβ-induced growth inhibition; i.e., [^3 H]-thymidine incorporation in the presence of neither TGFβ or decorin=100%; incorporation in the presence of TGFβ but not decorin=0%. […] This was shown by gel filtration of the DEAE-isolated decorin under dissociating conditions. […] The fractions were analyzed by SDS-PAGE, decorin ELISA and cell growth assays, all described above. Three protein peaks were obtained. […] Shown are the ability of the gel filtration fractions to affect [^3 H]-thymidine incorporation by the CHO cells and the concentration of decorin as determined by enzyme immunoassay. Shown also (arrows) are the elution positions of molecular size markers: BSA, bovine serum albumin (Mr=66,000); CA, carbonic anhydrase (Mr=29,000); Cy, cytochrome c (Mr=12,400); AP, aprotinin (Mr=6,500); TGF, [^125 I]TGFβ-1 (Mr=25,000).
# TGFβ-1 [1] = target: T1, TGFβ-1 (Homo sapiens, UniProt P01137)
# TGF-β [2] = target: T2, TGF-β (Homo sapiens, UniProt P01137); test: Binding of 125I-TGF-β to HepG2 cells; settings: 250 pM [125I]TGF-β, 2 hours room temperature
# T2 sequence (P01137 279-390 limits assumed): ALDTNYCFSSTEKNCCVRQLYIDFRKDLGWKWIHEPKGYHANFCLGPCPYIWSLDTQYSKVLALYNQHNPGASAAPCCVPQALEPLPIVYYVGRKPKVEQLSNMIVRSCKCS
# Experimental: (§2) About 2.5×10^4 HepG2 cells or L-M(tk-) cells were incubated with 250 pM[^125 I]TGF-β in the presence of recombinant human decorin (DC-12), PT-71 (MBP), decorin fragments (PT-72, -73, -84, -85, -86 and -87) or anti-TGF-β antibodies for 2 hours at room temperature. Cells were washed with washing buffer (128 mM NaCl, 5 mM KCl, 5 mM […], 1.2 mM CaCl2, 50 mM HEPES, pH 7.5) four times before determination of bound CPM.
# TGF-β [3] = target: T2, TGF-β; test: Binding of 125I-TGF-β to L-M(tk-) cells; settings: 250 pM [125I]TGF-β, 2 hours room temperature; proteins
# Experimental: as §2
# The activity of the peptides was evaluated using the L-M(tk-) TGFβ1 binding inhibition assay described in Example VII, except various concentrations of peptide were incubated with the cells and TGFβ1 instead of decorin and recombinant decorin fragments. The negative control was a synthetic peptide corresponding to the first 15 amino acids of decorin, which has the sequence […](SEQ ID NO. 21).
# TGFβ-1 [4] = target: T1, TGFβ-1; test: Microtiter binding assay: [125I]-TGFβ-1 binding to decorin-coated wells and competition; design: contains a major band at 25 kd; This band represents the native TGFβ-1 dimer; purchased Calbiochem, La Jolla, Calif; settings: intact proteoglycans, 37° C. 4 hours (FIG. 3A)
# Experimental: The binding of TGFβ-1 to decorin was also examined in a microtiter binding assay. To perform the assay, the wells of a 96-well microtiter plate were coated overnight with 2μg/ml of recombinant decorin in 0.1M sodium carbonate buffer, pH 9.5. The wells were washed with PBS containing 0.05% Tween (PBS/Tween) and samples containing 5×10^4 cpm of [^125 I]-TGFβ-1 and various concentrations of competitors in PBS/Tween were added to each well. The plates were then incubated at 37° C. for 4 hours (at 4° C. overnight in experiments with chondroitinase ABC-digested proteoglycans), washed with PBS/Tween and the bound radioactivity was solubilized with 1% SDS in 0.2M NaOH. Total binding without competitors was about 4% under the conditions used. Nonspecific binding, determined by adding 100-fold molar excess of unlabeled TGFβ-1 over the labeled TGFβ-1 to the incubation mixture, was about 13% of total binding. This assay was also used to study the ability of other decorin preparations and related proteins to compete with the interaction.
# Decorin isolated from bovine skin and biglycan isolated from bovine articular cartilage (PGI and PGII, obtained from Dr. Lawrence Rosenberg, Monteflore Medical Center, N.Y.; and described in Rosenberg et al., J. Biol. Chem. 250:6304-6313, (1985), incorporated by reference herein), chicken cartilage proteoglycan (provided by Dr. Paul Goetinck, La Jolla Cancer Research Foundation, La Jolla, Calif., and described in Goetinck, P. F., in THE GLYCOCONJUGATES, Vol. III, Horwitz, M. I., Editor, pp. 197-217, Academic Press, NY). For the preparation of core proteins, proteoglycans were digested with chondroitinase ABC (Seikagaku, Tokyo, Japan) by incubating 500 μg of proteoglycan with 0.8 units of chondroitinase ABC in 250 μl of 0.1M Tris/Cl, pH 8.0, 30 mM sodium acetate, 2 mM PMSF, 10 mM N-ethylmalelmide, 10 mM EDTA, and 0.36 mM pepstatin for 1 hour at 37° C. Recombinant decorin and decorin isolated from bovine skin (PGII) inhibited the binding of [^125 I]-TGFβ-1, as expected (FIG. 3A). […] This notion was further supported by competition experiments with the mutated decorin core protein (not shown) and chondroitinase ABC-digested decorin and biglycan (FIG.3B). Each of these proteins was inhibitory, whereas cartilage proteoglycan core protein was not.
# Target sequence in this assay (P01137 279-390 limits assumed, species assumed): as the sequence (P01137 279-390 limits assumed) above
# TGFβ-1 [5] = target: T1, TGFβ-1; test: [3H]thymidine incorporation assay: neutralization of TGFβ-1-induced growth inhibition in Mv1Lu cells; format: cell-based, mink; design: contains a major band at 25 kd; This band represents the native TGFβ-1 dimer; settings: TGFβ-1 0.5 ng/ml
# Experimental: Assay was performed as in FIG. 4A, except that TGFβ-1 was added at 0.5 ng/ml. This concentration of TGFβ induces 50% reduction of [^3 H]-thymidine incorporation in the Mv1Lu cells. The data represent neutralization of TGFβ-induced growth inhibition; i.e., [^3 H]-thymidine incorporation in the presence of neither TGFβ or decorin=100%; incorporation in the presence of TGFβ but not decorin=0%.
# Target sequence in this assay (P01137 279-390 limits assumed, species assumed): as the sequence (P01137 279-390 limits assumed) above
# TGFβ-1 [6] = target: T1, TGFβ-1; test: [3H]thymidine incorporation assay: neutralization of TGFβ-1-induced growth stimulation in CHO cells; format: cell-based; design: contains a major band at 25 kd; This band represents the native TGFβ-1 dimer; purchased Calbiochem, La Jolla, Calif
# Experimental: as §1
# Target sequence in this assay (P01137 279-390 limits assumed, species assumed): as the sequence (P01137 279-390 limits assumed) above
# IgG from a normal rabbit serum had no effect in the assay (.largecircle.).
# TGFβ-1 [7] = target: TGFβ-1 (Homo sapiens (Human), UniProt P01137, 125I label in most assays (chloramine T method in Example II; Bolton-Hunter labeled in Example VI); unlabeled in the experiment of Table I and in the growth assays); test: soluble peptide competitor of 125I-TGF-β binding to immobilized decorin
# Experimental: The wells were placed in a 37° C. incubator overnight and thereafter washed 3 times with 200 µl PBS (0.15M NaCl) per well to remove unbound decorin.
# Following the incubation, 50 µl of the free TGF-β supernatants were transferred to labeled tubes. The plate was washed 3 times with 0.05% Tween-20 in PBS (200 µl/well). The wells were then transferred into tubes for counting in a gamma counter.
molecule,measurement,setting,value
TGFβ-1: commercially obtained transforming growth factor β-1,increase of [3H]thymidine incorporation,CHO cells,50%
same,reduction of [3H]-thymidine incorporation,Mv1Lu cells,50%
recombinant human decorin (from UniProt P07585),"3H-thymidine incorporation in CHO cells stimulated with 5 ng/ml TGFβ-1, half maximal neutralization",TGFβ-1 [1],5 µg/mL
"Recombinant human decorin: recombinant human decorin (DC-12) (protein, single glycosaminoglycan chain of a chondroitin sulfate/dermatan sulfate type on serine-4) DEASGIGPEVPDDRDFEPSLGPVCPFRCQCHLRVVQCSDLGLDKVPKDLPPDTTLLDLQNNKITEIKDGDFKNLKNLHALILVNNKISKVSPGAFTPLVKLERLYLSKNQLKELPEKMPKTLQELRAHENEITKVRKVTFNGLNQMIVIELGTNPLKSSGIENGAFQGMKKLSYIRIADTNITSIPQGLPPSLTELHLDGNKISRVDAASLKGLNNLAKLGLSFNSISAVDNGSLANTPHLRELHLDNNKLTRVPGGLAEHKYIQVVYLHNNNISVVGSSDFCPPGHNTKKASYSGVSLFSNPVQYWEIQPSTFRCVYVRSAIQLGNYK",inhibition of 125I-TGF-β binding to HepG2 cells,TGF-β [2],inhibited
same,inhibition of 125I-TGF-β binding to L-M(tk-) cells,TGF-β [3],inhibited
"Decorin: recombinant decorin proteoglycan purified from transfected CHO cell media (protein, single glycosaminoglycan chain of a chondroitin sulfate/dermatan sulfate type on serine-4, recombinant decorin proteoglycan purified from transfected CHO cell media) DEASGIGPEVPDDRDFEPSLGPVCPFRCQCHLRVVQCSDLGLDKVPKDLPPDTTLLDLQNNKITEIKDGDFKNLKNLHALILVNNKISKVSPGAFTPLVKLERLYLSKNQLKELPEKMPKTLQELRAHENEITKVRKVTFNGLNQMIVIELGTNPLKSSGIENGAFQGMKKLSYIRIADTNITSIPQGLPPSLTELHLDGNKISRVDAASLKGLNNLAKLGLSFNSISAVDNGSLANTPHLRELHLDNNKLTRVPGGLAEHKYIQVVYLHNNNISVVGSSDFCPPGHNTKKASYSGVSLFSNPVQYWEIQPSTFRCVYVRSAIQLGNYK",inhibition of [125I]-TGFβ-1 binding to decorin-coated wells,TGFβ-1 [4],inhibited
same,effect on TGFβ-1-induced growth inhibition,TGFβ-1 [5],revealed an effect by decorin on the activity of TGFβ-1
same,"half maximal activity, neutralization of growth stimulatory activity of TGFβ-1",TGFβ-1 [6]; TGFβ-1 5 ng/ml,about 5 μg/ml
same,[3H]-thymidine incorporation with additional decorin,TGFβ-1 [6]; higher decorin concentrations,suppressed the [^3 H]-thymidine incorporation below the level observed without any added TGFβ-1
HLRVVQCSDLGL [peptide 16G],binding result,TGFβ-1 [7],binds

# Source: US5705609A, “Decorin fragments inhibiting cell regulatory factors” (La Jolla Cancer Research Foundation, priority 1995, dated 1998)
